# Where no end group is shown, it is not given here.
# What was measured:
# Solubility of CXB = format: physicochemical
# [1] = Iso-electric point of CPP peptides (Table 1); format: physicochemical
# Text: Celecoxib (CXB) was provided by Pfizer (Skokie, Ill.). The triglyceride Miglyol 812 was obtained from Sasol Germany GmbH (Witten, Germany) and Compritol 888 ATO was provided by Gattefosse (Saint Priest, France). The phospholipids 1-palmitoyl-2-oleoyl-phosphatidylcholine (POPC), 1,2-dioleoyl-sn-glycero-3-phosphoethanolamine (DOPE) and 1,2-di-(9Z-octadecenoyl)-sn-glycero-3-[(N-(5-amino-1-carboxypentyl)iminodiacetic acid)succinyl] (nickel salt) (DOGS-NTA-Ni) were purchased from Avanti Polar Lipids (USA). Cholesterol, Tween 80, pH 7.4 phosphate buffer saline (PBS), paraformaldehyde, tetrahydrofuran (THF), trifluoro acetic acid (TFA), and dialysis membranes (molecular weight cut off 12,400 daltons and flat width of 23 mm) were procured from Sigma-Aldrich Chemicals (St. Louis, USA). Polyoxyethylene-20 oleyl ether or Volpo-20 (Oleth-20) was a kind gift from Croda Inc (New Jersey, USA). Vivaspin centrifuge filters (molecular weight cut off 10,000 Daltons) was procured from Sartorius Ltd, (Stonehouse, UK). All other chemicals used herein were of analytical grade. All of the CPP peptides were synthesized by GenScript Corporation (NJ, USA). Sce Table 1 below for details of the composition, molecular weight and iso-electric points of the CPPs. Fluorescent Isothiocyanate (FITC), DID-oil and DIO fluorescent dyes were procured from Invitrogen (USA).
"solubility (Solubility of CXB; 0.1% w/v Volpo 20 in pH 7.4 PBS, aqueous with cosolvent or surfactant or cyclodextrin, in 0.1% Volpo 20 (receptor fluid, pH 7.4 PBS), read-out: saturation solubility) [µg/mL]",solubility in water (Solubility of CXB; water),Compound,Iso-electric point [1]
30,insoluble in water,"Cc1ccc(-c2cc(C(F)(F)F)nn2-c2ccc(S(N)(=O)=O)cc2)cc1 [CXB, Celecoxib]",–
–,–,YGRKKRRQRRRHHHHHH [TAT],12.7
–,–,RRRRRRRRHHHHHH (synthetically generated peptide) [R8],13.2
–,–,RRRRRRRRRRRRRRRHHHHHH (synthetically generated peptide) [R15],13.5
–,–,RRRRRRRRRRRHHHHHH (synthetically generated peptide) [R11],13.4
–,–,YKALRISRKLAKHHHHHH (syntheticall generated peptide) [reference compound],11.6
